Test results: paper PMC11852808

Settings: acetylation at K3

In the case of protein VII: K3Q acetyl mimic, the localisation_or_trafficking is reported as “no change”.
